Laboratory results: the supplement of paper PMC10065799, “High-throughput profiling of sequence recognition by tyrosine kinases and SH2 domains using bacterial peptide display” (eLife, 2023)

What follows are sequences tested against c-Src SH2 (assay: SH2 binding enrichment of the phosphorylated peptide, bacterial display (enrichment ratio); higher = better substrate or ligand; peptides without Tyr show the background).
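Note: peptide library displayed on the E. coli surface as eCPX fusions, selected cells deep-sequenced, score is each peptide's frequency after selection divided by its frequency in the input.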

ALMGLYHGQVL [HADHA_Y343] was tested. Which SH2 binding enrichment did it give?
Its SH2 binding enrichment is 0.647.

For TVVVPYEPPEV [TP53_Y220_S215T], which SH2 binding enrichment is on record?
The SH2 binding enrichment was 1.08.

Which SH2 binding enrichment does the source give for PATINYPFEKG [NDUFS8_Y84] here?
Its SH2 binding enrichment is 0.663.

GSRGKYFSGFR [ATM_Y332_S333F] was tested. Which SH2 binding enrichment did it give?
The SH2 binding enrichment was 0.544.

For QLQTNYPSSDN [MAX_Y115], which SH2 binding enrichment is on record?
The SH2 binding enrichment was 0.546.

How did the SH2 binding enrichment turn out when GYDHSYYFIAT [ESD_Y262] was run?
The SH2 binding enrichment was 0.871.

With IFGVSYGEFRF [CFTR_Y512_D513G_YF] as the sequence, how does the SH2 binding enrichment read?
The SH2 binding enrichment was 0.705.

Which SH2 binding enrichment does the source give for RPYSPYIIRGM [LRP5_Y1531_R1529S] here?
The SH2 binding enrichment was 1.08.

Which SH2 binding enrichment does the source give for RHPLDYLRQYP [NARS2_Y138_E137D] here?
The SH2 binding enrichment was 0.894.

How did the SH2 binding enrichment turn out when ISPPVYLTNEW [NRK_Y885] was run?
The SH2 binding enrichment was 0.655.

With SMGHRYIEVFR [HNRNPF_Y82_K87R] as the sequence, how does the SH2 binding enrichment read?
The SH2 binding enrichment was 3.04.

Which SH2 binding enrichment does the source give for PPVVNYEEDAR [FER_Y402] here?
The SH2 binding enrichment was 0.806.

For ALVFLSFCIIF [SIGLEC12_Y494_Y494S], which SH2 binding enrichment is on record?
Its SH2 binding enrichment is 0.793.

Which SH2 binding enrichment does the source give for PEADKYHLTFA [FGG_Y300_R301H_YF] here?
Its SH2 binding enrichment is 0.301.

With LQPNNCQFCGG [CSF1R_Y969_Y969C] as the sequence, how does the SH2 binding enrichment read?
Its SH2 binding enrichment is 0.709.

For VASSLYDIFAR [GLB1_Y294_L297F], which SH2 binding enrichment is on record?
The SH2 binding enrichment was 0.714.

YIRKDYEACKA [BBS4_Y48] was tested. Which SH2 binding enrichment did it give?
The SH2 binding enrichment was 0.796.

How did the SH2 binding enrichment turn out when IIRQLYLKWHP [SACS_Y4333_R4331Q] was run?
Its SH2 binding enrichment is 1.47.

With AVLSLYASGRN [ACTA1_Y145_T150N] as the sequence, how does the SH2 binding enrichment read?
The SH2 binding enrichment was 0.669.

GGFTRYCDGKK [PROS1_Y266_C265R_YF] was tested. Which SH2 binding enrichment did it give?
Its SH2 binding enrichment is 0.753.

For LKMLVYMDMSK [LRRC7_Y234_L235M], which SH2 binding enrichment is on record?
Its SH2 binding enrichment is 0.661.

With PRIKTYMRPSP [TDP1_Y497_H493R] as the sequence, how does the SH2 binding enrichment read?
Its SH2 binding enrichment is 0.842.

How did the SH2 binding enrichment turn out when DRPSEYAARQL [ANXA13_Y90] was run?
The SH2 binding enrichment was 0.523.

How did the SH2 binding enrichment turn out when ADEEFYEIIAA [FEStide_F_2014] was run?
Its SH2 binding enrichment is 0.729.

For KFANSYRMEPL [TCTE3_Y87], which SH2 binding enrichment is on record?
Its SH2 binding enrichment is 0.653.

Which SH2 binding enrichment does the source give for SYKNKYGMVAQ [APOB_Y276] here?
Its SH2 binding enrichment is 0.613.

With SKKVRYVVSKA [BARD1_Y156] as the sequence, how does the SH2 binding enrichment read?
Its SH2 binding enrichment is 1.32.

Which SH2 binding enrichment does the source give for CGASGYSATST [CERT1_Y143_S138C] here?
The SH2 binding enrichment was 0.556.

NGLVAYKDGKL [PMM2_Y76] was tested. Which SH2 binding enrichment did it give?
The SH2 binding enrichment was 0.436.

Which SH2 binding enrichment does the source give for EFKDAYTFAAD [BRDT_Y335_K336T_YF] here?
The SH2 binding enrichment was 0.703.

With ETLLFYGCRRS [POR_Y564_YF] as the sequence, how does the SH2 binding enrichment read?
The SH2 binding enrichment was 0.299.

For NVQIVYKPVDL [MAPT_Y627_S622N], which SH2 binding enrichment is on record?
The SH2 binding enrichment was 0.58.

ALEHKYWALGQ [MAP1A_Y1555_Q1553H] was tested. Which SH2 binding enrichment did it give?
The SH2 binding enrichment was 14.8.

Each sequence was assayed against Grb2 SH2 (UniProt P62993) in the same assay as above.
Grb2 SH2, sequence (P62993 whole entry, looked up): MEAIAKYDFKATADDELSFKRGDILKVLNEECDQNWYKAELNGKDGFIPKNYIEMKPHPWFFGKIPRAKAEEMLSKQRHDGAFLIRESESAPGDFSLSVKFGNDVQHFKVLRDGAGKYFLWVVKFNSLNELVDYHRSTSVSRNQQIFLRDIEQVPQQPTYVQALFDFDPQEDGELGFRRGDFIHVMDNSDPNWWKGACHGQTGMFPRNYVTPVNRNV

With ALMGLYHGQVL [HADHA_Y343] as the sequence, how does the SH2 binding enrichment read?
Its SH2 binding enrichment is 1.15.

TVVVPYEPPEV [TP53_Y220_S215T] was tested. Which SH2 binding enrichment did it give?
The SH2 binding enrichment was 0.626.

How did the SH2 binding enrichment turn out when PATINYPFEKG [NDUFS8_Y84] was run?
Its SH2 binding enrichment is 1.09.

Which SH2 binding enrichment does the source give for GSRGKYFSGFR [ATM_Y332_S333F] here?
The SH2 binding enrichment was 0.963.

QLQTNYPSSDN [MAX_Y115] was tested. Which SH2 binding enrichment did it give?
The SH2 binding enrichment was 0.752.

Which SH2 binding enrichment does the source give for GYDHSYYFIAT [ESD_Y262] here?
Its SH2 binding enrichment is 0.702.

Which SH2 binding enrichment does the source give for IFGVSYGEFRF [CFTR_Y512_D513G_YF] here?
Its SH2 binding enrichment is 1.06.

Which SH2 binding enrichment does the source give for RPYSPYIIRGM [LRP5_Y1531_R1529S] here?
The SH2 binding enrichment was 1.16.

How did the SH2 binding enrichment turn out when RHPLDYLRQYP [NARS2_Y138_E137D] was run?
The SH2 binding enrichment was 1.36.

Which SH2 binding enrichment does the source give for ISPPVYLTNEW [NRK_Y885] here?
Its SH2 binding enrichment is 1.03.

How did the SH2 binding enrichment turn out when SMGHRYIEVFR [HNRNPF_Y82_K87R] was run?
The SH2 binding enrichment was 0.936.

PPVVNYEEDAR [FER_Y402] was tested. Which SH2 binding enrichment did it give?
The SH2 binding enrichment was 0.745.

How did the SH2 binding enrichment turn out when ALVFLSFCIIF [SIGLEC12_Y494_Y494S] was run?
The SH2 binding enrichment was 1.85.

Which SH2 binding enrichment does the source give for PEADKYHLTFA [FGG_Y300_R301H_YF] here?
The SH2 binding enrichment was 0.637.

How did the SH2 binding enrichment turn out when LQPNNCQFCGG [CSF1R_Y969_Y969C] was run?
The SH2 binding enrichment was 0.943.

How did the SH2 binding enrichment turn out when VASSLYDIFAR [GLB1_Y294_L297F] was run?
The SH2 binding enrichment was 1.02.

Which SH2 binding enrichment does the source give for YIRKDYEACKA [BBS4_Y48] here?
Its SH2 binding enrichment is 0.982.

Which SH2 binding enrichment does the source give for IIRQLYLKWHP [SACS_Y4333_R4331Q] here?
Its SH2 binding enrichment is 1.77.

With AVLSLYASGRN [ACTA1_Y145_T150N] as the sequence, how does the SH2 binding enrichment read?
Its SH2 binding enrichment is 0.867.

With GGFTRYCDGKK [PROS1_Y266_C265R_YF] as the sequence, how does the SH2 binding enrichment read?
The SH2 binding enrichment was 0.972.

With LKMLVYMDMSK [LRRC7_Y234_L235M] as the sequence, how does the SH2 binding enrichment read?
The SH2 binding enrichment was 0.849.

PRIKTYMRPSP [TDP1_Y497_H493R] was tested. Which SH2 binding enrichment did it give?
Its SH2 binding enrichment is 1.04.

How did the SH2 binding enrichment turn out when DRPSEYAARQL [ANXA13_Y90] was run?
The SH2 binding enrichment was 0.746.

How did the SH2 binding enrichment turn out when ADEEFYEIIAA [FEStide_F_2014] was run?
Its SH2 binding enrichment is 0.917.

For KFANSYRMEPL [TCTE3_Y87], which SH2 binding enrichment is on record?
Its SH2 binding enrichment is 0.861.

With SYKNKYGMVAQ [APOB_Y276] as the sequence, how does the SH2 binding enrichment read?
Its SH2 binding enrichment is 1.01.

For SKKVRYVVSKA [BARD1_Y156], which SH2 binding enrichment is on record?
The SH2 binding enrichment was 1.38.

CGASGYSATST [CERT1_Y143_S138C] was tested. Which SH2 binding enrichment did it give?
Its SH2 binding enrichment is 0.741.

How did the SH2 binding enrichment turn out when NGLVAYKDGKL [PMM2_Y76] was run?
Its SH2 binding enrichment is 0.917.

Which SH2 binding enrichment does the source give for EFKDAYTFAAD [BRDT_Y335_K336T_YF] here?
The SH2 binding enrichment was 0.813.

How did the SH2 binding enrichment turn out when ETLLFYGCRRS [POR_Y564_YF] was run?
The SH2 binding enrichment was 0.66.

For NVQIVYKPVDL [MAPT_Y627_S622N], which SH2 binding enrichment is on record?
Its SH2 binding enrichment is 0.982.

With ALEHKYWALGQ [MAP1A_Y1555_Q1553H] as the sequence, how does the SH2 binding enrichment read?
The SH2 binding enrichment was 0.817.
